Measured values taken from the supplement of paper PMC9112550, “Optimization of the antimicrobial peptide Bac7 by deep mutational scanning” (BMC Biology, 2022).

Test system: Escherichia coli TOP10
Test: shrunken log2 fold change of peptide-encoding DNA abundance (4.5 h post-induction vs induction); higher = less antimicrobial activity (less host growth inhibition)
Conditions: time post-induction: 4.5 h; library: site-saturation at positions 5, 18, 19, 20
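Also: peptides expressed intracellularly from a pBAD plasmid library in pooled LB shake-flask culture, induced with 0.3% L-arabinose, DNA abundance read by NGS, three biological replicates, DESeq2 with apeglm shrinkage.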

Sequence | shrunken log2 fold change
RRIRSRPPRLPRPRPRPIWQPRP | -0.0554
RRIRDRPPRLPRPRPRPPLPPRP | 0.737
RRIRARPPRLPRPRPRPLIFPRP | 0.000397
RRIRYRPPRLPRPRPRPGFTPRP | -0.149
RRIRIRPPRLPRPRPRPLYWPRP | -0.456
RRIRVRPPRLPRPRPRPAEIPRP | -0.0984
RRIRRRPPRLPRPRPRPPNAPRP | 1.06
RRIRPRPPRLPRPRPRPLLWPRP | 0.0186
RRIRTRPPRLPRPRPRPQPFPRP | 0.0325
RRIRSRPPRLPRPRPRPSAAPRP | 0.614
RRIRYRPPRLPRPRPRPRKFPRP | -1.72
RRIRERPPRLPRPRPRPHQGPRP | 0.0963
RRIRRRPPRLPRPRPRPTGNPRP | 0.0381
RRIRTRPPRLPRPRPRPCPHPRP | -0.0429
RRIRWRPPRLPRPRPRPVDVPRP | -0.0135
RRIRRRPPRLPRPRPRPHSSPRP | -0.00646
RRIRFRPPRLPRPRPRPAVYPRP | -0.35
RRIRRRPPRLPRPRPRPYTQPRP | -0.141
RRIRARPPRLPRPRPRPKYPPRP | -0.178
RRIRYRPPRLPRPRPRPKADPRP | 0.0864
RRIRERPPRLPRPRPRPTMMPRP | -0.0968
RRIRWRPPRLPRPRPRPIALPRP | 0.0387
RRIRWRPPRLPRPRPRPYTFPRP | 0.0563
RRIRCRPPRLPRPRPRPESFPRP | 0.0159
RRIRMRPPRLPRPRPRPCYIPRP | -0.133

Sequence | shrunken log2 fold change
RRIRWRPPRLPRPRPRPWFEPRP | -0.0354
RRIRFRPPRLPRPRPRPDPYPRP | -0.437
RRIRTRPPRLPRPRPRPYDVPRP | -0.153
RRIRRRPPRLPRPRPRPLDIPRP | -0.121
RRIRPRPPRLPRPRPRPVFCPRP | -0.113
RRIRWRPPRLPRPRPRPFDGPRP | -0.0363
RRIRQRPPRLPRPRPRPTPTPRP | 0.336
RRIRVRPPRLPRPRPRPMYSPRP | -0.242
RRIRWRPPRLPRPRPRPVIYPRP | -0.279
RRIRVRPPRLPRPRPRPTQEPRP | 0.124
RRIRMRPPRLPRPRPRPWIYPRP | -0.169
RRIRDRPPRLPRPRPRPWNCPRP | -0.3
RRIRDRPPRLPRPRPRPEPSPRP | 0.885
RRIRRRPPRLPRPRPRPQKSPRP | -0.106
RRIRIRPPRLPRPRPRPWPHPRP | -0.394
RRIRERPPRLPRPRPRPFSVPRP | -0.213
RRIRHRPPRLPRPRPRPHDDPRP | -0.0997
RRIRWRPPRLPRPRPRPDSNPRP | -0.189
RRIRFRPPRLPRPRPRPITIPRP | -0.195
RRIRGRPPRLPRPRPRPSMMPRP | 0.0755
RRIRTRPPRLPRPRPRPQFKPRP | 2.23
RRIRSRPPRLPRPRPRPQNVPRP | -0.209
RRIRMRPPRLPRPRPRPKISPRP | 0.0938
RRIRKRPPRLPRPRPRPALGPRP | 0.0812
RRIRFRPPRLPRPRPRPFRCPRP | -0.227

Sequence | shrunken log2 fold change
RRIRNRPPRLPRPRPRPERRPRP | 0.237
RRIRVRPPRLPRPRPRPRGEPRP | 0.254
RRIRWRPPRLPRPRPRPATHPRP | 0.0538
RRIRSRPPRLPRPRPRPIMQPRP | -0.216
RRIRSRPPRLPRPRPRPIFGPRP | 0.0746
RRIRPRPPRLPRPRPRPWPAPRP | 0.0589
RRIRMRPPRLPRPRPRPFNPPRP | -1.51
RRIRTRPPRLPRPRPRPANVPRP | -0.0276
RRIRERPPRLPRPRPRPMDHPRP | -0.0102
RRIRIRPPRLPRPRPRPKAVPRP | -0.00677
RRIRRRPPRLPRPRPRPMMKPRP | 0.324
RRIRNRPPRLPRPRPRPLCFPRP | -0.461
RRIRWRPPRLPRPRPRPKGYPRP | 0.0648
RRIRFRPPRLPRPRPRPLMIPRP | -0.266
RRIRCRPPRLPRPRPRPTMFPRP | -0.2
RRIRRRPPRLPRPRPRPVAIPRP | 0.687
RRIRPRPPRLPRPRPRPRYFPRP | 0.0508
RRIRYRPPRLPRPRPRPKTLPRP | -0.459
RRIRDRPPRLPRPRPRPGVNPRP | 0.148
RRIRFRPPRLPRPRPRPLKWPRP | -0.13
RRIRFRPPRLPRPRPRPMIHPRP | -0.0677
RRIRDRPPRLPRPRPRPFTFPRP | -0.167
RRIRLRPPRLPRPRPRPQCDPRP | -0.118
RRIRDRPPRLPRPRPRPADLPRP | -0.0491
RRIRKRPPRLPRPRPRPSTQPRP | 0.169

Sequence | shrunken log2 fold change
RRIRARPPRLPRPRPRPCDSPRP | 0.0469
RRIRQRPPRLPRPRPRPSVLPRP | -0.0352
RRIRIRPPRLPRPRPRPTQMPRP | 0.565
RRIRDRPPRLPRPRPRPPIPPRP | -0.0554
RRIRFRPPRLPRPRPRPDKVPRP | -0.281
RRIRLRPPRLPRPRPRPRLDPRP | 0.363
RRIRFRPPRLPRPRPRPAWPPRP | 0.268
RRIRQRPPRLPRPRPRPYLGPRP | -0.0158
RRIRNRPPRLPRPRPRPYNAPRP | -1.54
RRIRERPPRLPRPRPRPQKEPRP | -0.0239
RRIRERPPRLPRPRPRPTTHPRP | -0.294
RRIRRRPPRLPRPRPRPYSQPRP | -0.032
RRIRERPPRLPRPRPRPDLDPRP | -0.0232
RRIRPRPPRLPRPRPRPNEWPRP | -0.203
RRIRQRPPRLPRPRPRPEADPRP | 0.138
RRIRDRPPRLPRPRPRPYLSPRP | -0.102
RRIRGRPPRLPRPRPRPGRDPRP | 0.358
RRIRGRPPRLPRPRPRPRWSPRP | 0.754
RRIRDRPPRLPRPRPRPILMPRP | 0.303
RRIRIRPPRLPRPRPRPCCQPRP | -0.0291
RRIRSRPPRLPRPRPRPAGTPRP | 1.67
RRIRERPPRLPRPRPRPGCQPRP | 0.0111
RRIRGRPPRLPRPRPRPRRLPRP | 0.502
RRIRMRPPRLPRPRPRPNLNPRP | -0.0299
RRIRFRPPRLPRPRPRPITTPRP | -0.198

Sequence | shrunken log2 fold change
RRIRVRPPRLPRPRPRPRGSPRP | 0.527
RRIRMRPPRLPRPRPRPYYEPRP | -0.28
RRIRLRPPRLPRPRPRPSAIPRP | -0.189
RRIRYRPPRLPRPRPRPFVFPRP | -0.95
RRIRFRPPRLPRPRPRPMFNPRP | -0.797
RRIRQRPPRLPRPRPRPGVIPRP | 0.0679
RRIRWRPPRLPRPRPRPWTAPRP | 0.306
RRIRFRPPRLPRPRPRPMCMPRP | -0.153
RRIRFRPPRLPRPRPRPFSEPRP | -0.0573
RRIRERPPRLPRPRPRPHYYPRP | -0.83
RRIRIRPPRLPRPRPRPTICPRP | -0.191
RRIRSRPPRLPRPRPRPRWPPRP | 0.553
RRIRARPPRLPRPRPRPIPHPRP | 0.0126
RRIRIRPPRLPRPRPRPTNRPRP | -0.326
RRIRMRPPRLPRPRPRPPSIPRP | 0.411
RRIRPRPPRLPRPRPRPDRNPRP | -0.0925
RRIRRRPPRLPRPRPRPMYGPRP | -0.0152
RRIRERPPRLPRPRPRPSFLPRP | -0.789
RRIRLRPPRLPRPRPRPPAWPRP | 0.98
RRIRIRPPRLPRPRPRPDMSPRP | -0.00804
RRIRFRPPRLPRPRPRPWMVPRP | -0.227
RRIRDRPPRLPRPRPRPNAMPRP | -0.0158
RRIRNRPPRLPRPRPRPTLEPRP | 0.041
RRIRVRPPRLPRPRPRPWRLPRP | 0.426
RRIRLRPPRLPRPRPRPYLNPRP | -1.13

Sequence | shrunken log2 fold change
RRIRIRPPRLPRPRPRPPREPRP | 0.535
RRIRMRPPRLPRPRPRPPDIPRP | 0.121
RRIRYRPPRLPRPRPRPNAHPRP | -0.395
RRIRHRPPRLPRPRPRPVLSPRP | -0.386
RRIRNRPPRLPRPRPRPAADPRP | 0.342
RRIRQRPPRLPRPRPRPKNAPRP | 0.0178
RRIRCRPPRLPRPRPRPLHCPRP | -0.1
RRIRERPPRLPRPRPRPKKVPRP | -0.178
RRIRCRPPRLPRPRPRPHGPPRP | 0.0798
RRIRWRPPRLPRPRPRPHCWPRP | 0.202
RRIRERPPRLPRPRPRPADNPRP | -0.03
RRIRQRPPRLPRPRPRPWKDPRP | -0.0211
RRIRGRPPRLPRPRPRPLPQPRP | 0.927
RRIRIRPPRLPRPRPRPVPKPRP | 0.0597
RRIRMRPPRLPRPRPRPHKVPRP | 0.14
RRIRGRPPRLPRPRPRPSVLPRP | 0.389
RRIRKRPPRLPRPRPRPFKNPRP | -0.0646
RRIRKRPPRLPRPRPRPIHRPRP | -0.0202
RRIRVRPPRLPRPRPRPNDCPRP | -0.2
RRIRGRPPRLPRPRPRPIDNPRP | 0.186
RRIRFRPPRLPRPRPRPMMAPRP | 0.189
RRIRVRPPRLPRPRPRPDQGPRP | 0.00375
RRIRYRPPRLPRPRPRPISWPRP | -0.0102
RRIRPRPPRLPRPRPRPQRAPRP | 0.381
RRIRKRPPRLPRPRPRPDKFPRP | 0.126
